The target in test [1] is T1, cynomolgus monkey TNFR2 (cynomolgus monkey, UniProt P20333 23-461 (human entry)).
T1 chain: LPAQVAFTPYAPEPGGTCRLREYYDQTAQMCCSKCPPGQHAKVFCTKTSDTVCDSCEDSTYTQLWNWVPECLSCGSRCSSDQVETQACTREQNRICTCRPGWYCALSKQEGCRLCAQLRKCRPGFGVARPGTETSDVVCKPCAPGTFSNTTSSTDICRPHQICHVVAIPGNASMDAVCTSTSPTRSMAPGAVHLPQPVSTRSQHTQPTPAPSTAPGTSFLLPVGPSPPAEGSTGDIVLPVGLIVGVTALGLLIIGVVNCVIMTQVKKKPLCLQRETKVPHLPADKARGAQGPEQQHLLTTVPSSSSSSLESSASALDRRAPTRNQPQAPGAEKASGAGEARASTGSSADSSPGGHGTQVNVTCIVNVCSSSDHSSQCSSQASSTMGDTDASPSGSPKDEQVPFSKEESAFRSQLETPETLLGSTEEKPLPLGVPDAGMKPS
Put plainly: cell-based or functional assay.

Test [2] has as its target T2, human TNFR2 (human, UniProt P20333 23-461).
T2 sequence: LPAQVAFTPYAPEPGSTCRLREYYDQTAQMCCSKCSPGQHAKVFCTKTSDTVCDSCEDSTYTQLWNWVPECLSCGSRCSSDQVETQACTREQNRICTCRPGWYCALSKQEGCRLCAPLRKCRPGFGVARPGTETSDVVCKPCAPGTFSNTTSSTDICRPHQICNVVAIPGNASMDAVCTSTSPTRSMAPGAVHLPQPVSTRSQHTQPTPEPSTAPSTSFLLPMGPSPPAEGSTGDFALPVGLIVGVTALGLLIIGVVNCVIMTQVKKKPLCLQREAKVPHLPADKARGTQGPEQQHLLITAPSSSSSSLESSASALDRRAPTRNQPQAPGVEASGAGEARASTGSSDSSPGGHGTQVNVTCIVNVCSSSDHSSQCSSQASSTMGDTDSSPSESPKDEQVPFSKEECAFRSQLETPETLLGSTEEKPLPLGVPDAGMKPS
Put plainly: cell-based or functional assay.

For test [3], the target named is T2, human TNFR2. Briefly: cell-based or functional assay. This is another data set of the same source.
For test [4], the target named is T2, human TNFR2. Put plainly: binding to human TNFR2 CHO cells.
For test [5], the target named is T2, human TNFR2. Put plainly: binding to human TNFR2 CHO cells (repeats Table 1).
The target in the next test is T3, biotinylated human TNFR2 (human, UniProt P20333 23-257, biotinylated).
T3 construct: Soluble biotinylated protein captured on a streptavidin chip for SPR; also called HuTNFR2
T3 sequence: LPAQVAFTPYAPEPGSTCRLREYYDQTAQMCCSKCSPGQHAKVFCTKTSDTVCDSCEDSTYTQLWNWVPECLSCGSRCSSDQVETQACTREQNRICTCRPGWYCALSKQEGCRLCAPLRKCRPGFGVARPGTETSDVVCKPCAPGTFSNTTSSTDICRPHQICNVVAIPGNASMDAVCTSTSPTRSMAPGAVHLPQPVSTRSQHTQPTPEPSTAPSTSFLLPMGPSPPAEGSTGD
Put plainly: SPR (BIAcore), biotinylated TNFR2 captured on streptavidin chip, antibody as analyte (apparent affinity). The protocol: (§1) Increased avidity was confirmed by Surface Plasmon Resonance (SPR) using a BIAcore. Briefly, biotinylated human- or cyno-TNFR2 was captured on the surface of a streptavidin chip for 60 seconds at a flow rate of […]. […] The dissociation phase was then initiated with running buffer (HBS-EP+) injected for 600 seconds at […]. Data were analyzed using the Biacore Evaluation Software.
(In general: In SPR one partner is held on a chip, and binding of the other changes the refractive index at the surface.)

The target of a further test is T4, biotinylated cyno TNFR2 (cynomolgus monkey, UniProt P20333 23-257 (human entry), limits assumed, biotinylated).
T4 construct: Soluble biotinylated protein captured on a streptavidin chip for SPR; also called CyTNFR2
T4 chain: T3 sequence with S16G, S36P, P117Q, N164H, E210A, S216G, M223V
Described as above. The procedure: as §1

The target in test [6] is T2, human TNFR2. Briefly: binding to CHO cells over-expressing human TNFR2.
Test [7] addresses T1, cynomolgus monkey TNFR2. Put plainly: cell-based or functional assay.
For test [8], the target named is T2, human TNFR2. Put plainly: cell-based or functional assay. The source holds these as a separate data set.
Test [9] addresses T2, human TNFR2. Put plainly: cell-based or functional assay. The source holds these as a separate data set.
Test [10] concerns the target T2, human TNFR2. Put plainly: binding to human TNFR2 CHO cells. This is another data set of the same source.
Test [11] has as its target T1, cynomolgus monkey TNFR2. Briefly: binding to CHO cells over-expressing cyno TNFR2.
The target of test [12] is T1, cynomolgus monkey TNFR2. Put plainly: binding to cyno TNFR2 CHO cells (repeats Table 1).
The target in test [13] is T5, human TNFR2 (human, UniProt P20333 23-461).
T5 construct: expressed on the surface of CHO cells; also called HuTNFR2; TNFRSF1B
T5 sequence: T2 sequence
Put plainly: binding to human TNFR2 CHO cells, IgG format.

Where a chain is given by its changes, count along the chain named.

B1: GBT-TNFR2-854 (parental) (antibody, human IgG2, kappa, V domains shown)
VH: QVQLKESGPGLVAPSQSLSITCTVSGFSFPSSGVDWVRQSPGKGLEWLGVTWGVGSTHYNSALKSRLSISKDNSKSQVFLKMNSLQTEDTAIYYCASGEWDEGFVYWGQGTLVTVSA
VL: DIVMTQSQKFMSTTVGDRVSITCKASQNVGTAVAWYQQKPGQSPKLLIYSASNRYTGVPDRFTGSGSGTDFTLTISNMQSEDLADYFCQQYSSYPLTFGGGTKLEIKR
notes: Chimeric mouse V / human IgG2 effector-null, kappa; same hybridoma clone as IgG1 825
Usually EC50 stands for the concentration that produces a half-maximal response. As usually defined, the koff is the rate constant with which the complex falls apart. In general, kon refers to the rate constant with which the complex forms. For B1, in the test with cynomolgus monkey TNFR2 [1], the “EC50 (CyPBMC)” value turned out to be 15 nM. For the same molecule, in the test with human TNFR2 [2], the “EC50 (HuPBMC)” value is 1.4 nM. In addition, in the test with human TNFR2 [2], the “Jurkat EC50” value turned out to be 1.74 µg/mL. The “Jurkat (ng/ml), EC50 in NF-KB-GFP reporter assay” value in the test with human TNFR2 [3] came out at 711 ng/mL. The EC50 with human TNFR2 [4] came to 1.13 nM; with human TNFR2 [5], 0.106 µg/mL; with human TNFR2 [6], 0.106 µg/mL; with human TNFR2 [10], 1.13 nM; in the test with cynomolgus monkey TNFR2 [11] it was 0.13 µg/mL; with cynomolgus monkey TNFR2 [12] it was 0.13 µg/mL. For the same molecule, the values for the Kd in the test with biotinylated human TNFR2 and with biotinylated cyno TNFR2 were 0.11 nM and 0.89 nM, respectively. Also, the koff with biotinylated human TNFR2 was 0.00125 s⁻¹; with biotinylated cyno TNFR2 it was 0.00996 s⁻¹. Besides, the values for the kon with biotinylated human TNFR2 and with biotinylated cyno TNFR2 were 1.13e+07 M⁻¹ s⁻¹ and 1.12e+07 M⁻¹ s⁻¹, respectively. In the test with cynomolgus monkey TNFR2 [7], the “EC50 CyPBMC (CD25+/Ki67+ of CD4+ cells)” value came to 27.2 µg/mL. The “EC50 HuPBMC (ICAM-1 up-regulation)” value with human TNFR2 [8] was 1.4 µg/mL. In addition, the “EC50 Jurkat” value with human TNFR2 [9] came out at 0.526 µg/mL.

B2: GBT-TNFR2-1765 (antibody, human IgG2, kappa, V domains shown)
VH: QVQLVQSGAEVKKPGASVKVSCKVSGFSFPSSGVDWVRQAPGQGLEWLGVTWGVGSTHYNQKFQGRVTITKDTSKSTVYMELSSLRSEDTAVYYCASGEWDEGFVYWGQGTLVTVSS
VL: DIQLTQSPSFLSASVGDRVTITCKASQNVGTAVAWYQQKPGKAPKLLIYAASTLQSGVPSRFSGSGSGTEFTLTISSLQPEDFATYYCQQYSSYPLTFGGGTKVEIKR
Regarding B2, the response with human TNFR2 [13] was half-maximal at 0.67 nM (EC50).

Source of the values: patent US20230406951A1 (Pfizer, published 2023).
